Measurements taken from US20110236874A1, “METHOD FOR FORMATION OF RENAL TUBULES” (priority 2008, published 2011).
Entries after “also recorded” stand apart in the source; their conditions may differ.

Assays:
[1] = system: primary human renal proximal tubule cells (HPTCs); test: α-SMA immunostaining (myofibroblasts) in HPTC cultures on ECM coatings; assay type: cell-based; conditions: BMP-7 100 ng/ml constantly in the medium
Method: Immunostaining, histochemistry, and imaging: Immunostaining was performed as described in Sadoni et al. J Cell Biol 1999; 146(6): 1211-1226. The following primary antibodies were used: rabbit anti-ZO-1 (zonula occludens-1, Invitrogen, Carlsbad, Calif., USA) and mouse anti-α-smooth muscle actin (SMA) (Abcam, Cambridge, UK). Alexa Fluor 488-conjugated anti-rabbit (Invitrogen) and TRITC-conjugated anti-mouse (Invitrogen) secondary antibodies were applied. After immunostaining, cell nuclei were stained with DAPI and cells were mounted with vectashield (Vector Laboratories, Burlingame, Calif.) for microscopy. Histochemical detection of γGTP activity and controls were performed as described in Ryan et al. Kidney Int 1994; 45(1):48-57. Imaging was performed with a Zeiss AxioObserver Z1 microscope (Carl Zeiss, Jena, Germany) using the Zeiss AXIOVISION™ imaging software.
Disintegration of tight junctions after a certain time point is indicated. […]
Based on these observations, the question arose why the monolayer always disintegrated and could not be maintained for longer periods. […] Therefore, the presence of α-SMA-positive cells was monitored in the final experimental series. α-SMA is expressed in myofibroblasts but not in epithelial cells, and was detected in these experiments together with ZO-1 by co-immunostaining (FIG. 2).

[2] = system: primary human renal proximal tubule cells (HPTCs); test: Quantification of α-SMA expression by immunoblotting; assay type: cell-based; conditions: HPTCs on laminin + collagen IV treated with BMP-7 100 ng/ml; control uncoated TCP; FIG. 3
Method: Immunoblotting: For immunoblotting, cells were lyzed in 100 μl of heated NuPage LDS sample buffer (Invitrogen). Samples were collected, heated at 95° C. and centrifuged at 10,000 g for 2 minutes to pellet cell debris. Protein concentrations of the supernatants were measured with a NANODROP™ spectrophotometer (Biofrontier, Singapore). Appropriate amounts of the supernatants were loaded onto a NuPage precast gel (4-12%, Invitrogen) with the size marker PAGE Ruler Plus (Fermentas, Hanover, Md., USA). Proteins were transferred to iBlot membranes after electrophoresis. […]
After washing, the membranes were incubated with 0.2 μl/ml of both peroxidase-conjugated sheep anti-mouse antibody and donkey anti-rabbit antibody. […] The films were scanned and analyzed using Adobe Photoshop CS3.
FIG. 3. Quantification of α-SMA expression by immunoblotting. […] Proteins were extracted in each case from 3 replicas, and the extract obtained from each sample was loaded onto a separate lane of the gel. α-SMA (lower bands, 42 kD) and α-tubulin (loading control, upper bands, 50 kD) were detected by immunoblotting. […] (B) The intensities of the bands shown in (A) were determined. […]

B1: BMP-7: Bone morphogenetic protein (BMP)-7 (Sigma), added at 100 ng/ml (protein, UniProt P18075 293-431, looked up)
Bone morphogenetic protein 7: STGSKQRSQNRSKTPKNQEALRMANVAENSSSDQRQACKKHELYVSFRDLGWQDWIIAPEGYAAYYCEGECAFPLNSYMNATNHAIVQTLVHFINPETVPKPCCAPTQLNAISVLYFDDSSNVILKKYRNMVVRACGCH
In the case of B1, the “appearance of α-SMA-expressing cells and tight junction formation” value [1] is reported as “high numbers of α-SMA-expressing cells, associated with poor formation of tight junctions” and the “α-SMA expression by immunoblotting (ratio to α-tubulin) versus control” value [2] is reported as “significant differences compared to the control; also recorded: significantly (p 0.002) higher”.
